Measured values from patent US6391305.
Values joined by “and” are separate entries in the source; they are usually repeats but may differ in a detail not shown here. Equal values may be shown once.

Assays:
[1] = system: (2R,3S) 2,3,4-trihydroxybutanoyl-SHomoRChgQ-SL-DOX (3′)
[2] = system: (2R,3S) 2,3,4-trihydroxybutanoyl-ShRChgQ-SL-acid
[3] = system: (d)2,3-dihydroxypropionyl-3PAL-SSChgQSL-acid
[4] = system: (d)2,3-dihydroxypropionyl-3PALSSChgQ-SL-DOX (3′).AcOH
[5] = system: (d)2,3-dihydroxypropionyl-HomoRSSChgQSL-DOX (3′)
[6] = system: (d)2,3-dihydroxypropionyl-SHomoRChgQ-SL-DOX (3′)
[7] = system: (d)2,3-dihydroxypropionylSSChgQ-SL-DOX (3′)
[8] = system: (d)2,3-dihydroxypropionylSSSChgQ-SL-DOX (3′)
[9] = system: (l)2,3-dihydroxypropionyl-3PAL-SSChgQ-SL-acid
[10] = system: (l)2,3-dihydroxypropionyl-HomoRSSChgQ-SL-DOX (3′)
[11] = system: (l)2,3-dihydroxypropionyl-SHomoRChgQ-SL-DOX (3′)
[12] = system: (l)2,3-dihydroxypropionyl-SSChgQ-SL-DOX (3′)
[13] = system: (l)2,3-dihydroxypropionyl-SSChgQ-SL-acid
[14] = system: (l)2,3-dihydroxypropionyl-SSSChgQ-SL-acid
[15] = system: (l)2,3-dihydroxypropionylSSSChgQ-S(dL)-DOX (3′)
[16] = system: (l)2,3-dihydroxypropionylSSSChgQ-SL-DOX (3′)
[17] = system: 2(S)-2,3-dihydroxy-propionyl ShRChgQSL-acid
[18] = system: 2(S)2,3-dihydroxypropionyl-hRSSChgQ-SL-acid
[19] = system: 2,3-dihydroxypropionyl-GSSChgQ-SL-acid
[20] = system: 2,3-dihydroxypropionyl-HomoSSSChgQ-SL-DOX (3′)
[21] = system: 2,3-dihydroxypropionyl-SSSChgQ-SL-acid
[22] = system: 2,3-dihydroxypropionyl-ShRChgQ-SL-acid
[23] = system: 2,3-dihydroxypropionyl-ShRYQ-SL-acid
[24] = system: 2,3-dihydroxypropionyl-hSSSChgQ-SL-acid
[25] = system: 2-hydroxyacetyl-HomoRASChgQ-SL-DOX (3′)
[26] = system: 2-hydroxyacetyl-HomoRSSChgQ-SL-DOX (3′)
[27] = system: 2-hydroxyacetyl-HomoRSSYQ-SL-DOX (3′)
[28] = system: 2-hydroxyacetyl-HomoRSSYQ-SNle-DOX (3′)
[29] = system: 2-hydroxyacetyl-SHomoRChgQ-SL-DOX (3′)
[30] = system: 2-hydroxyacetyl-SSChgQ-SL-DOX (3′)
[31] = system: 2-hydroxyacetyl-SSChgQ-SL-acid
[32] = system: 2-hydroxyacetyl-SSSChgQ-SL-DOX (3′)
[33] = system: 2-hydroxyacetyl-hRASChgQ-SL-acid
[34] = system: 2-hydroxyacetyl-hRSSYQ-SL-acid
[35] = system: 2-hydroxyacetyl-hRSSYQ-SNle-acid
[36] = system: 2-hydroxyacetylhRYQ-SL-acid
[37] = system: PEG(16)-SHomoRYQ-SL-DOX (3′)
[38] = system: PEG(2)-3PAL-SSChgQ-SL-acid
[39] = system: PEG(2)-ASChgQ-SL-DOX (3′)
[40] = system: PEG(2)-HomoRSSChgQ-SL-DOX (3′)
[41] = system: PEG(2)-SHomoRChgQ-SL-DOX (3′)
[42] = system: PEG(2)-SHomoRYQ-SL-DOX (3′)
[43] = system: PEG(2)-SHomoRYQ-SL-DOX(3′)
[44] = system: PEG(2)-SSSChgQ-SL-DOX (3′)
[45] = system: PEG(4)-β-PAL-SSChgQ-SL-acid
[46] = system: PEG(6)-ASChgQ-SL-DOX (3′)

Work on free prostate specific antigen (PSA) yielded a Time to 50% Substrate Cleavage by York PSA [1] of 45 min, a Time to 50% Substrate Cleavage by York PSA [2] of 90 min and a Time to 50% Substrate Cleavage by York PSA ((OH-Ac)SSSChgQ-SL-acid) of 120 min. For the same substance, the Time to 50% Substrate Cleavage by York PSA [3] was 80 min, the “Time to 50% Substrate Cleavage by York PSA (Min)” value [4] was 12 (PS) and the Time to 50% Substrate Cleavage by York PSA [5] was 12 min. It also gave a Time to 50% Substrate Cleavage by York PSA [6] of 65 min, a Time to 50% Substrate Cleavage by York PSA [7] of 120 min and a Time to 50% Substrate Cleavage by York PSA [8] of 55 min. The Time to 50% Substrate Cleavage by York PSA [9] was 70 min, the Time to 50% Substrate Cleavage by York PSA [10] was 12 min and the Time to 50% Substrate Cleavage by York PSA [11] was 15 min. The Time to 50% Substrate Cleavage by York PSA [12] was 25 min, the Time to 50% Substrate Cleavage by York PSA [13] was 180 min and the Time to 50% Substrate Cleavage by York PSA [14] was 80 min and 110 min. For the same substance, the Time to 50% Substrate Cleavage by York PSA [15] was 180 min, the Time to 50% Substrate Cleavage by York PSA [16] was 25 min and the Time to 50% Substrate Cleavage by York PSA [17] was 35 min. The Time to 50% Substrate Cleavage by York PSA [18] was 25 min, the Time to 50% Substrate Cleavage by York PSA [19] was 160 min and the Time to 50% Substrate Cleavage by York PSA [20] was 35 min. The Time to 50% Substrate Cleavage by York PSA [21] was 120 min, the Time to 50% Substrate Cleavage by York PSA [22] was 75 min and the Time to 50% Substrate Cleavage by York PSA [23] was 35 min and 50 min. It also gave a Time to 50% Substrate Cleavage by York PSA [24] of 160 min, a Time to 50% Substrate Cleavage by York PSA [25] of 10 min and a Time to 50% Substrate Cleavage by York PSA [26] of 12 min. For the same substance, the “Time to 50% Substrate Cleavage by York PSA (Min)” value [27] was 16 (PS), the Time to 50% Substrate Cleavage by York PSA [28] was 60 min and the Time to 50% Substrate Cleavage by York PSA [29] was 15 min. The Time to 50% Substrate Cleavage by York PSA [30] was 45 min, the Time to 50% Substrate Cleavage by York PSA [31] was 180 min and the Time to 50% Substrate Cleavage by York PSA [32] was 25 min. For the same substance, the Time to 50% Substrate Cleavage by York PSA [33] was 70 min, the “Time to 50% Substrate Cleavage by York PSA (Min)” value [34] was 35 (PP) and the Time to 50% Substrate Cleavage by York PSA [35] was 45 min. The Time to 50% Substrate Cleavage by York PSA [36] was 105 min, the Time to 50% Substrate Cleavage by York PSA (Ac-ANKASYQ-SL-acid) was 135 min and 220 min and the “Time to 50% Substrate Cleavage by York PSA (Min)” value (Ac-ShRYQ-SNle-acid) was 25 (PS). For the same substance, the “Time to 50% Substrate Cleavage by York PSA (Min)” value (Ac-hR(CHA)Q-SNle-acid) was 200 (PS), the Time to 50% Substrate Cleavage by York PSA (Ac-hRASChgQ-SL-acid) was 50 min and the “Time to 50% Substrate Cleavage by York PSA (Min)” value (Ac-hRSSYQ-SNle-acid) was 25 (PS). The Time to 50% Substrate Cleavage by York PSA (AchRSSChgQ-SL-acid) was 120 min and 45 min, the Time to 50% Substrate Cleavage by York PSA (PEG(1)-ShRChgQ-SL-acid) was 120 min and the Time to 50% Substrate Cleavage by York PSA (PEG(1)-ShRYQ-SL-acid) was 90 min. It also gave a Time to 50% Substrate Cleavage by York PSA (PEG(1)-hRSSChgQ-SL-acid) of 30 min, a Time to 50% Substrate Cleavage by York PSA (PEG(14)ShRYQ-SL-acid) of 40 min and a Time to 50% Substrate Cleavage by York PSA (PEG(15)-ShRYQ-SL-acid) of 40 min. It also gave a Time to 50% Substrate Cleavage by York PSA [37] of 65 min, a Time to 50% Substrate Cleavage by York PSA (PEG(16)-ShRYQ-SL-acid) of 40 min and a Time to 50% Substrate Cleavage by York PSA (PEG(17)-ShRYQ-SL-acid) of 55 min. For the same substance, the Time to 50% Substrate Cleavage by York PSA (PEG(18)ShRYQ-SL-acid) was 40 min, the Time to 50% Substrate Cleavage by York PSA (PEG(19)ShRYQ-SL-acid) was 60 min and the Time to 50% Substrate Cleavage by York PSA [38] was 80 min. It also gave a Time to 50% Substrate Cleavage by York PSA [39] of 45 min, a Time to 50% Substrate Cleavage by York PSA [40] of 11 min and a Time to 50% Substrate Cleavage by York PSA (PEG(2)-S-hRChgQ-SL-acid) of 30 min. For the same substance, the Time to 50% Substrate Cleavage by York PSA [41] was 25 min, the Time to 50% Substrate Cleavage by York PSA [42] was 60 min and the Time to 50% Substrate Cleavage by York PSA [43] was 35 min. The Time to 50% Substrate Cleavage by York PSA [44] was 60 min, the Time to 50% Substrate Cleavage by York PSA (PEG(2)-ShRYQ-SL-acid) was 35 min and the Time to 50% Substrate Cleavage by York PSA (PEG(2)-hRSSChgQ-SL-acid) was 40 min. For the same substance, the Time to 50% Substrate Cleavage by York PSA (PEG(2)SSChgQ-SL-DOX (3′)) was 90 min, the Time to 50% Substrate Cleavage by York PSA (PEG(2)SSSChgQ-SL-acid) was 150 min and the Time to 50% Substrate Cleavage by York PSA [45] was 60 min. The Time to 50% Substrate Cleavage by York PSA [46] was 160 min.
